The record followed here is patent US20230203107A1, “PEPTIDE FOR TREATING SEPSIS DERIVED FROM RV3364C PROTEIN OF MYCOBACTERIUM TUBERCULOSIS” (priority 2021, published 2023).

Assay [1] has as its target T1, interaction between SNX9 and Rv3364c (Homo sapiens, UniProt Q9Y5X1).
T1 construct: different regions 1-595, 1-250, 250-361, and 392-595 of SNX9; host or cells: 293 / HEK293T
It counts as cell-based.

In assay [2] the target is T2, interaction between YEATS4 and Rv3364c (Homo sapiens, UniProt O95619).
T2 construct: host or cells: 293 / HEK293T
T2 sequence (O95619 whole entry): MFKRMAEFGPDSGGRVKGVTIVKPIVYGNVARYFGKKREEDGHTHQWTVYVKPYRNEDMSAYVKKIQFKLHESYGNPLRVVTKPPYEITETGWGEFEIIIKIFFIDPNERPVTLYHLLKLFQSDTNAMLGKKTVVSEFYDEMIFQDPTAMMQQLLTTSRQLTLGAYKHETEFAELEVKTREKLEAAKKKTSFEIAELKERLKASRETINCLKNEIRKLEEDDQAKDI
It counts as cell-based.

The target in assay [3] is T3, interaction between SNX9 and p47phox (Homo sapiens, UniProt Q9Y5X1).
T3 construct: different regions 1-595, 1-250, 250-361, and 392-595 of SNX9; p47phox plasmid as in Biomaterials 2016, 89, 1-13; host or cells: HEK293T
T3 sequence (Q9Y5X1 whole entry): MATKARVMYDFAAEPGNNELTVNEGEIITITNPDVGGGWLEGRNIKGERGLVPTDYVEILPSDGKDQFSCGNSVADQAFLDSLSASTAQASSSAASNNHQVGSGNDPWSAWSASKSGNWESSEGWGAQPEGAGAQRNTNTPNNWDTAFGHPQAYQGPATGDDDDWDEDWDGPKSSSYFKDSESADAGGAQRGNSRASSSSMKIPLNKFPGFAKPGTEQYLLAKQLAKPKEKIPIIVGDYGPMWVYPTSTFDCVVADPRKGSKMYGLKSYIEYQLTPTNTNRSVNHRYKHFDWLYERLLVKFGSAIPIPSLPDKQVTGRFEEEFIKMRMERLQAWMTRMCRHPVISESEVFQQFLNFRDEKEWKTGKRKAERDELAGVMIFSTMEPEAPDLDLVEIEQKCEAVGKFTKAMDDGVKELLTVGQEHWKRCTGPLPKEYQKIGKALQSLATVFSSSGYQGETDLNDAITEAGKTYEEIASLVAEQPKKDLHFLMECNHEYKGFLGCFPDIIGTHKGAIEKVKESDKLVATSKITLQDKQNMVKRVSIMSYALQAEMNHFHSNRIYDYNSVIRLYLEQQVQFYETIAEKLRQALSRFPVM
In kind it is cell-based. Particulars: HEK293T cells, Flag-Rv3364c 1, 5, 10 μg, 12 hours.

Assay [4] addresses T4, endogenous EGFLAM of mouse macrophages (BMDM) (mouse, UniProt Q4VBE4 25-1017).
T4 sequence: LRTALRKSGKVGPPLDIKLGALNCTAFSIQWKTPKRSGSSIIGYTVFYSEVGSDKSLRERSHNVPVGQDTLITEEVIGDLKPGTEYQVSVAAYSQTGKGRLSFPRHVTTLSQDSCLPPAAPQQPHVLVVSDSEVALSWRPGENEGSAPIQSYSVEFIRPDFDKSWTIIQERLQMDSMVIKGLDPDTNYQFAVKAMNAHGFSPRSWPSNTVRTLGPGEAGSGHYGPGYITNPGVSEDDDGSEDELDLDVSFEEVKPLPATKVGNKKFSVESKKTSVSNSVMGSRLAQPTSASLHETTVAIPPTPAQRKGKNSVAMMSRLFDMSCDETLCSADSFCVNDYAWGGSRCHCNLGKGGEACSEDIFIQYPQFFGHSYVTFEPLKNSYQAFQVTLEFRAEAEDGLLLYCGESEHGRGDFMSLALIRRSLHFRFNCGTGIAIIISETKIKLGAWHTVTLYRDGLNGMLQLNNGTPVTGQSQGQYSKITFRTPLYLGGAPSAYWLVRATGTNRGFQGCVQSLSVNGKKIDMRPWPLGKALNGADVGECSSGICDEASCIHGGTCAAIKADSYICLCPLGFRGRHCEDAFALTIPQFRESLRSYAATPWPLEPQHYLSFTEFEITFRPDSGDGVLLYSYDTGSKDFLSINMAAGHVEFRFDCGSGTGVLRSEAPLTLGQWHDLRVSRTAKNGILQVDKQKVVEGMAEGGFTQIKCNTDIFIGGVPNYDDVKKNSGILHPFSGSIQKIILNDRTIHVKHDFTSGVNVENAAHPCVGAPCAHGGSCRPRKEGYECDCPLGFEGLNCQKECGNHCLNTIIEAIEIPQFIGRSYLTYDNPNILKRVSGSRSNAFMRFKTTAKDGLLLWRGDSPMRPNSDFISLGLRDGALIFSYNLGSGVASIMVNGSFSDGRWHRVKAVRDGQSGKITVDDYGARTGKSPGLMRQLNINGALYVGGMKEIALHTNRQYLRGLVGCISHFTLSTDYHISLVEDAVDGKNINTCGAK
Put plainly: anti-His co-IP from BMDM treated with rRv3364c, anti-EGFLAM blot.

In assay [5] the target is T5, endogenous ZBTB46 of mouse macrophages (BMDM) (mouse, UniProt Q8BID6 1-600).
T5 sequence: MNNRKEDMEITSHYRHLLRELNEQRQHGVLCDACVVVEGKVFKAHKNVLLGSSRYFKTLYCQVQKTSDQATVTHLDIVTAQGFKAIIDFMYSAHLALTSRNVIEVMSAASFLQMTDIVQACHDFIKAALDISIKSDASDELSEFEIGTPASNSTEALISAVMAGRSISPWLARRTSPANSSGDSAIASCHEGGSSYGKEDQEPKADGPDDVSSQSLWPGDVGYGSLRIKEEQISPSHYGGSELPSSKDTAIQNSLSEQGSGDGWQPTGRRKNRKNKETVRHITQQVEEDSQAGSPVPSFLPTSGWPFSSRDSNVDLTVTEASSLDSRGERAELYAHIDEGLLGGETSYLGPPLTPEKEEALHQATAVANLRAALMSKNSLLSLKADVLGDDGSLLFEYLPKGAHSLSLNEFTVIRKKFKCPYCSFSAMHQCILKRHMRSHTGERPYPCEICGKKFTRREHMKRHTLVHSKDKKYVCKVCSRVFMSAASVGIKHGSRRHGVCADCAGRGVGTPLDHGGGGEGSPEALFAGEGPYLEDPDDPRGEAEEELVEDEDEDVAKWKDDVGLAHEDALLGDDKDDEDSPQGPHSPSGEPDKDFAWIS
Kind of assay: anti-His co-IP from BMDM treated with rRv3364c, anti-ZBTB46 blot.

For assay [6], the target named is T6, endogenous SNX9 of mouse macrophages (BMDM, Raw264.7) (mouse, UniProt Q91VH2 1-595).
T6 construct: also called SNC9
T6 sequence (Q91VH2 whole entry): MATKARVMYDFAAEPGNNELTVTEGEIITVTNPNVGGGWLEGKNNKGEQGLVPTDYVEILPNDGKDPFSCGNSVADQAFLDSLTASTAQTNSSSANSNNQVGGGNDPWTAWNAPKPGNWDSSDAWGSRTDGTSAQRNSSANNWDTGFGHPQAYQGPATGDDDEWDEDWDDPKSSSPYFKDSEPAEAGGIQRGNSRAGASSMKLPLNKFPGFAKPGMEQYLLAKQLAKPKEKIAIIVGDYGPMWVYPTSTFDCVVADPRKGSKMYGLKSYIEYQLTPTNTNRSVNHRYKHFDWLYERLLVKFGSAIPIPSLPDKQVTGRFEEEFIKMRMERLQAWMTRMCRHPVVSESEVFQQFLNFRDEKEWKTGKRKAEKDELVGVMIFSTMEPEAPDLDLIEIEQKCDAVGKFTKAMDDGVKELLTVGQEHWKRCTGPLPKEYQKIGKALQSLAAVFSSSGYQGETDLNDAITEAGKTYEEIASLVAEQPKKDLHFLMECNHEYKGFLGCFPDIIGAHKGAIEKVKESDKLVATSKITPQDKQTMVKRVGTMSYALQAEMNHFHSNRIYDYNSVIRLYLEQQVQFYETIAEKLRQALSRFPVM
Kind of assay: anti-His co-IP from BMDM treated with 1 ug/ml rRv3364c, anti-SNX9 blot.

For assay [7], the target named is endogenous YEATS4 of mouse macrophages (BMDM, Raw264.7) (mouse, UniProt Q9CR11 1-227). Kind of assay: anti-His co-IP from BMDM treated with 1 ug/ml rRv3364c, anti-YEATS4 blot.
Sequence of endogenous YEATS4 of mouse macrophages (BMDM, Raw264.7) (Q9CR11 whole entry): as the sequence (O95619 whole entry) above, with A224T counted along it
Assay [8] concerns the target SNX9 (sorting nexin 9), full-length recombinant human protein on the HuProt microarray (human, UniProt Q9Y5X1 1-595). Kind of assay: HuProt human proteome microarray, biotinylated rRv3364c, streptavidin Alexa Fluor 532.
In assay [9] the target is YEATS4 (YEATS domain-containing protein 4), full-length recombinant human protein on the HuProt microarray (human, UniProt O95619 1-227). Described as above.
Sequence of YEATS4 (YEATS domain-containing protein 4), full-length recombinant human protein on the HuProt microarray (O95619 whole entry, the tested form may be a part): as the sequence (O95619 whole entry) above
The target of assay [10] is T7, ZBTB46 (zinc finger and BTB domain-containing 46), full-length recombinant human protein on the HuProt … (human, UniProt Q86UZ6 1-589).
T7 sequence: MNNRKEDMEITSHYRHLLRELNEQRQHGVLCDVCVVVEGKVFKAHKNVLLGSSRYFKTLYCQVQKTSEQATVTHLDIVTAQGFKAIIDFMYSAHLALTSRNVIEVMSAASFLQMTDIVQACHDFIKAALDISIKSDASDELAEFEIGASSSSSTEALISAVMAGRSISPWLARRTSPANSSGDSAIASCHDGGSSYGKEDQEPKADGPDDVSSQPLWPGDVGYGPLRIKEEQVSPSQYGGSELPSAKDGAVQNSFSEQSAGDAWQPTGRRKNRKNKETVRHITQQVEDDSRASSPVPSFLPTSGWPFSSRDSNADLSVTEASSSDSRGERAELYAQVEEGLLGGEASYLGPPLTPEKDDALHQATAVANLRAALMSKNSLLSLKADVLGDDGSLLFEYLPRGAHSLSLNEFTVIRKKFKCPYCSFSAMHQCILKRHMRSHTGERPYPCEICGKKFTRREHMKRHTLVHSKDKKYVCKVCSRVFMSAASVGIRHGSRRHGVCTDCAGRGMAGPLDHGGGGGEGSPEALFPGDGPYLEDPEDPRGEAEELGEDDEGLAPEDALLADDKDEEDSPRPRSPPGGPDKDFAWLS
Described as above.

T1 sequence (Q9Y5X1 whole entry): as the sequence (Q9Y5X1 whole entry) above
Sequence of SNX9 (sorting nexin 9), full-length recombinant human protein on the HuProt microarray (Q9Y5X1 whole entry, the tested form may be a part): as the sequence (Q9Y5X1 whole entry) above

With “DWLVSKFARE [Tat-Rv3364c (11DWLVSKFARE20)]”, the “blocking of the interaction between SNX9 and Rv3364c” value in assay [1] (293 cells with Myc-SNX9 and Flag-Rv3364c, peptide 5 μM, 12 hours) is “block the interaction between SNX9 and Rv3364c”.

On to “MKARLPDSPL [Tat-Rv3364c (1MKARLPDSPL10)]”, for which, in assay [2], the “blocking of the interaction between YEATS4 and Rv3364c” value is “block the interaction between YEATS4 and Rv3364c”.

“Rv3364c: Rv3364c protein of Mycobacterium tuberculosis, expressed in 293T cells from a Flag-tagged plasmid”: the “interaction between SNX9 and p47phox” value in assay [3] is on record as “decreased as the amount of Rv3364c increased”.

Turning to WLVSKF (Rv3364c(12-17 aa)) [12WLVSKF17], the “region of Rv3364c required for interaction with SNX9” value in assay [1] (FIG. 5) is on record as “minimum peptide essential for interaction with SNX9”.

B1: recombinant Rv3364c (rRv3364c) protein, N-terminal 6xHis tag (other)
chain: MKARLPDSPLDWLVSKFAREVPGVAHALLVSVDGLPVAASEHLPRERADQLAAVTSGLASLAGGAAQLFDGGQVLQSVVEMQNGYLLLMQVGDGSALAALAATGCDIGQIGYEMAILVERVGGVVQSCRR
notes: also called His-rRv3364c; not shown: N-terminal 6xHis tag from the pRSFDuet-1 vector
Consider B1, for which the binding result in [4] is on record as “no binding (tested: 1 ug/ml rRv3364c)”; in [5] it was “no binding (tested: 1 ug/ml rRv3364c)”; in assay [6], “binds”; in assay [7], “binds”; in [8], “binds”; in [9], “binds”. The binding result in assay [10] is “binds”.
